Data published in article doi:10.64898/2025.12.30.697032.

Target: cauliflower mitoribosome small subunit (cauliflower (B. oleracea))
Experiment: cryo-EM structure; in vitro reconstitution (first reaction): 2.7 ug/uL mtSSU, 500 nM rps3 mRNA (51 nt), 500 nM mtIF3, 2 min at 37 °C, then 10 min on ice; Initiation buffer (20 mM HEPES-KOH pH 7.6, 75 mM KCl, 40 mM MgCl2); gives mtPIC-1 and mtPIC-2

- percent of mtSSU particles accommodating mtIF3: 70%
B1: Arabidopsis mitochondrial initiation factor 3 (natural protein)
chain: MAIWRIINRSYLKYASNQLTRNYYTQVCLASSTHVVKQTTKLSSFDIPNSDICTRPSNIFQNLRFLATSAQTRKKEAEVDSDGPRLNEKITGDYVRLVSEEGHCVVSLREALRRAKELQCDLVEVQRDAKPPVCKIVKYSLELYKKAKVGKERAKAKRAEAIRPDIKEIRFTPKIEAKDLKFKSDQALKLMESGYRVKCLAVPDKDKHKELEPEKLLELLFRFTCFIGDALVESWPEADRKGAVVIVRHAKFGPPKKGGVKLMKDIDIKSARVKEESPKPDSSKAGVATVDDQEDIEKSEPRFSVEQAQPVKFQNAYAKREPSSEFSGGRDASRFEPQSPNQHVNPQRPRFSNQAPNQQPTGRFDPQSPNQPPSAPRPQFPNQQPTGRFDPQFPSQPPRPQFPNQAPNQQSTGRFNPQFPNQRPSPPQSRFPDQAPNQQPSGPSPNRHPDRQGPPPRFQNQAPNQQPTGRFEPQPPNPPRAPPRPQTRLPNETSNEQPTAPGRSSGPASGYGIFSTPKTK
